Reference: patent US20190112382A1 (published 2019)

T1: extracellular domain of human CD269 (BCMA, TNFRSF17) (human, UniProt Q02223 4-54)
T1 construct: also called hBCMA; human BCMA
T1 sequence: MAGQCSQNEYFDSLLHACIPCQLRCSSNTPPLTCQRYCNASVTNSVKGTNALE


Experiments:
[1] = target: T1, extracellular domain of human CD269 …; assay: SPR, IgG immobilised on GLH chip, BCMA in the mobile phase (n = 3)
[2] = target: T2, extracellular domain of cynomolgous BCMA (cynomolgous, UniProt A0A2K5UD97 1-53); assay: SPR, IgG immobilised on GLH chip, BCMA in the mobile phase (n = 2)
T2 construct: Used coated on plates in ELISA and in the mobile phase in SPR; also called cyBCMA; cynoBCMA
T2 sequence (A0A2K5UD97 entry or part of it limits assumed, form in doubt): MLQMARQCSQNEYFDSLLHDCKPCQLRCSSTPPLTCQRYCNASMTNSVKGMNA

Binder	Kd [1] [nM]	Kd [2] [nM]
J22.9-H (antibody, V domains shown) VH: EVQLVESGGGLVQPGGSLRLSCAASGFTFSRYWMSWVRQAPGKGLVWVGEINPDSSTINYAPSLKDKFTISRDNAKNTLYLQMNSLRAEDTAVYYCASLYYDYGDAMDYWGQGTLVTVSS VL: EIVMTQSPATLSVSPGERATLSCKASQSVDSNVAWYQQKPGQAPRALIYSASLRFSGIPARFSGSGSGTEFTLTISSLQSEDFAVYYCQQYNNYPLTFGAGTKLELKR	15	200
J22.9-FSY (antibody, V domains shown) VH: EVQLVESGGGLVQPGGSLRLSCAASGFTFSRYWFSWVRQAPGKGLVWVGEINPSSSTINYAPSLKDKFTISRDNAKNTLYLQMNSLRAEDTAVYYCASLYYDYGDAYDYWGQGTLVTVSS VL: EIVMTQSPATLSVSPGERATLSCKASQSVESNVAWYQQKPGQAPRALIYSASLRFSGIPARFSGSGSGTEFTLTISSLQSEDFAVYYCQQYNNYPLTFGAGTKLELK	2.2	20
J22.9-ISY (antibody, V domains shown) VH: EVQLVESGGGLVQPGGSLRLSCAASGFTFSRYWISWVRQAPGKGLVWVGEINPSSSTINYAPSLKDKFTISRDNAKNTLYLQMNSLRAEDTAVYYCASLYYDYGDAYDYWGQGTLVTVSS VL: EIVMTQSPATLSVSPGERATLSCKASQSVESNVAWYQQKPGQAPRALIYSASLRFSGIPARFSGSGSGTEFTLTISSLQSEDFAVYYCQQYNNYPLTFGAGTKLELK	2	17
